Data reported in article PMC12851022 (2025).

Legend:
[1] = target: T1, VHL (Homo sapiens, UniProt P40337); experiment: FRET
[2] = target: T1, VHL; experiment: Alpha assay

T1 sequence (P40337 whole entry): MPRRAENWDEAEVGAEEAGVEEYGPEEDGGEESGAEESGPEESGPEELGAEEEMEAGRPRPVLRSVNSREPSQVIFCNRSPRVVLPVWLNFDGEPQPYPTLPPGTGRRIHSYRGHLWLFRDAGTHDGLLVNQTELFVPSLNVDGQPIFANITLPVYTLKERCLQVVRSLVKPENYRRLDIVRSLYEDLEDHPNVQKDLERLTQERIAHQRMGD

B1: USP39 (protein)
chain: MSGRSKRESRGSTRGKRESESRGSSGRVKRERDREREPEAASSRGSPVRVKREFEPASAREAPASVVPFVRVKREREVDEDSEPEREVRAKNGRVDSEDRRSRHCPYLDTINRSVLDFDFEKLCSISLSHINAYACLVCGKYFQGRGLKSHAYIHSVQFSHHVFLNLHTLKFYCLPDNYEIIDSSLEDITYVLKPTFTKQQIANLDKQAKLSRAYDGTTYLPGIVGLNNIKANDYANAVLQALSNVPPLRNYFLEEDNYKNIKRPPGDIMFLLVQRFGELMRKLWNPRNFKAHVSPHEMLQAVVLCSKKTFQITKQGDGVDFLSWFLNALHSALGGTKKKKKTIVTDVFQGSMRIFTKKLPHPDLPAEEKEQLLHNDEYQETMVESTFMYLTLDLPTAPLYKDEKEQLIIPQVPLFNILAKFNGITEKEYKTYKENFLKRFQLTKLPPYLIFCIKRFTKNNFFVEKNPTIVNFPITNVDLREYLSEEVQAVHKNTTYDLIANIVHDGKPSEGSYRIHVLHHGTGKWYELQDLQVTDILPQMITLSEAYIQIWKRRDNDETNQQGA
modifications: USP39_PROTAC_V1
Work on B1 yielded a Kd [1] of 0.012 µM and a Kd [2] of 0.232 µM.
